T1: hBack
T1 chimeric human/tetraodon Sortilin extracellular region, BAP tag: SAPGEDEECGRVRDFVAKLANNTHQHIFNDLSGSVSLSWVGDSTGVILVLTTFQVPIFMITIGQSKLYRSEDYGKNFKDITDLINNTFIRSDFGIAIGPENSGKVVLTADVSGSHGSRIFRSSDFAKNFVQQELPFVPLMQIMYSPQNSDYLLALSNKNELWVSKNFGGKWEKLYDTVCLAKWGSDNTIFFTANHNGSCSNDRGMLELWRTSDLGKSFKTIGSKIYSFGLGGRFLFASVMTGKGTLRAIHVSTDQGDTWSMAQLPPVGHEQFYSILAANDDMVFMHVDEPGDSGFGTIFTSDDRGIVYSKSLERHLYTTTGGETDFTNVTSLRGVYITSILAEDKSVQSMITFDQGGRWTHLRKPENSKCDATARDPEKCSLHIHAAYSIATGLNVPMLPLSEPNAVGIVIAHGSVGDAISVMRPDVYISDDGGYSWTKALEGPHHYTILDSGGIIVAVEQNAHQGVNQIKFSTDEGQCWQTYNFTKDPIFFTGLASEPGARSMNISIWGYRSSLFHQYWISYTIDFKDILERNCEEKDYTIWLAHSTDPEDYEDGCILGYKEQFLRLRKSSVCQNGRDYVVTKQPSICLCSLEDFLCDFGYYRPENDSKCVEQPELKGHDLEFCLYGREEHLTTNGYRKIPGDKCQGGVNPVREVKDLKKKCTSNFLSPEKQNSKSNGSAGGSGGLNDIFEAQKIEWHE

T2: Sortilin SORTECDBAP_hB01-05 (human/tetraodon chimera)
T2 construct: Shuffle construct: chimeric human/tetraodon Sortilin ECD with BAP tag
T2 chain: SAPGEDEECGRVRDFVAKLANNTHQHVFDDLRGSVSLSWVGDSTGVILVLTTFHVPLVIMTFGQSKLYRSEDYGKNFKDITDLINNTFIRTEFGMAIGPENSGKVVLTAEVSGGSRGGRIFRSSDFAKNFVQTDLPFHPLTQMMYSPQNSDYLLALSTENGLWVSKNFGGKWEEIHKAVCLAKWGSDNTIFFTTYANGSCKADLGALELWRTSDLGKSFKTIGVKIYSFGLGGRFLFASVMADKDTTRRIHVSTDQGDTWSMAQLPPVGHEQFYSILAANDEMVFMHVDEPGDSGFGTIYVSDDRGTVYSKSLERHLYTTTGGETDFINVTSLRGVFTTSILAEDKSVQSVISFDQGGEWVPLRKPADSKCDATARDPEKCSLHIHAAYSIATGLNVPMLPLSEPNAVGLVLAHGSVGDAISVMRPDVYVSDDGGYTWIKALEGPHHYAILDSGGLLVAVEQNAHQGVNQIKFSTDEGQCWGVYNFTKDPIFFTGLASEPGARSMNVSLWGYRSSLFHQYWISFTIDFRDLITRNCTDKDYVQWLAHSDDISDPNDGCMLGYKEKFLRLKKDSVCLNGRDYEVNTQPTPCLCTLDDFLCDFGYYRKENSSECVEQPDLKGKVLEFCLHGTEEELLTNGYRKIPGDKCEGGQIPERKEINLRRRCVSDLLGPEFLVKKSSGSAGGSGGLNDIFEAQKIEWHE

T3: Sortilin SORTECDBAP_tetra (tetraodon)
T3 construct: Fully tetraodon Sortilin ECD with BAP tag; also called tetraodon; tetraodon Sortilin
T3 chain: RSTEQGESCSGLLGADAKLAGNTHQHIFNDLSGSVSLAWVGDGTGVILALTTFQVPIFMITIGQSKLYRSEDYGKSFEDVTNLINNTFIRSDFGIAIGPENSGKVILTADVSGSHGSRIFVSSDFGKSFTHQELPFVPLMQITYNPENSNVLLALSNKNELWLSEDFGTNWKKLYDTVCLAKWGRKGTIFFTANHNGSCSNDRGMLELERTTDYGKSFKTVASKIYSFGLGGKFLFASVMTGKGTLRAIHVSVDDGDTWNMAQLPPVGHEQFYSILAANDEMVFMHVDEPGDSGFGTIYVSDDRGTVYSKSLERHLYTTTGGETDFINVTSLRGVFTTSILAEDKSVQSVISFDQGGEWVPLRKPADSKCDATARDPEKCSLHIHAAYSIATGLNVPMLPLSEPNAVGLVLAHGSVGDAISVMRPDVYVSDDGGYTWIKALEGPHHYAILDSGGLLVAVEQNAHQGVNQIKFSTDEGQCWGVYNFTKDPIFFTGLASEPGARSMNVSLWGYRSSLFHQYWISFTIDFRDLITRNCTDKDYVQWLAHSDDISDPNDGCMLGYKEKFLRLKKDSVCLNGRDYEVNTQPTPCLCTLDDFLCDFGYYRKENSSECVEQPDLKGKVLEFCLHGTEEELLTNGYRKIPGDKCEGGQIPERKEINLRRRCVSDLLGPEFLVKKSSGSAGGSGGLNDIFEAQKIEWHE

T4: Sortilin SORTECDBAP_hB06-10 (human/tetraodon chimera)
T4 construct: Shuffle construct: chimeric human/tetraodon Sortilin ECD with BAP tag
T4 chain: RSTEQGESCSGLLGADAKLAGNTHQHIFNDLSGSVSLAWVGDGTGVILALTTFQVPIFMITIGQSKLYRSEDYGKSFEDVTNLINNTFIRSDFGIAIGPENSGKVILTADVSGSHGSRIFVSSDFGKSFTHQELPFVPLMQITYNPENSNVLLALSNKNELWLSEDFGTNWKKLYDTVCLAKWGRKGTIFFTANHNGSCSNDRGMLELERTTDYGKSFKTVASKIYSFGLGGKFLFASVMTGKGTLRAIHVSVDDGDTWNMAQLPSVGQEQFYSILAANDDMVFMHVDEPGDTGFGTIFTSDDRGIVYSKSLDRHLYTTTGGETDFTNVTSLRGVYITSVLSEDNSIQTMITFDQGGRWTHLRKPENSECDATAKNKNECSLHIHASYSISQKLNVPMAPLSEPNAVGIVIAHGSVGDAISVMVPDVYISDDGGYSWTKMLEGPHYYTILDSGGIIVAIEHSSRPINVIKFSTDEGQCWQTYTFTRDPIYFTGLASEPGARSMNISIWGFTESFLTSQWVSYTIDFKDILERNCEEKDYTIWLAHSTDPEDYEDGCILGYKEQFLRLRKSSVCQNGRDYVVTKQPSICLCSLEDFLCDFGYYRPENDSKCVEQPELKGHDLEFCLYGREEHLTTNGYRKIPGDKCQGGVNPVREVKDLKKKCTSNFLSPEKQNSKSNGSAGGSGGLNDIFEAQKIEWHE


How the values were obtained:
Assay in all cases: BLI (Octet384RED)
[1] = target: T1, hBack
[2] = target: T2, Sortilin SORTECDBAP_hB01-05
[3] = target: T3, Sortilin SORTECDBAP_tetra
[4] = target: T4, Sortilin SORTECDBAP_hB06-10

Binder | EC50 [1] [ng/mL] | binding result [2] | binding result [3] | EC50 [4] [ng/mL]
IgG1-6003-910 (antibody, V domains shown, also called Antibody 6003-910) VH: not shown VL: EIVLTQSPATLSLSPGERATLSCRASQSVSSYLVWYQQKPGQAPRLLIYDASNRATGIPARFSGSGSGTDFTLTISSLEPEDFAVYYCQQRSNWPPTFGQGTRLEIK | 1.54 | no binding | no binding | 1.16
IgG1-6003-972 (antibody, V domains shown, also called Antibody 6003-972) VH: QVQLVESGGGVVQPGRSLRLSCAASGFTFSDYAMHWVRRAPGKGLEWVVVISYDGSNKYYADSVKGRFTISRDNSKNTLYLQMNSLRAEDTAVYYCARDPSGGWYFDLWGRGTLVTVSS VL: EIVLTQSPATLSLSPGERATLSCRASQSVSSYLAWYQQKPGQAPRLLIYDASNRATGIPARFSGSGSGTDFTLTISSLEPEDFALYYCQQRSHWPRTFGQGTKVEIK | 1.49 | no binding | no binding | 1.12

Reference: patent US20210292414A1 (H LUNDBECK A S, published 2021)
